This data set is described as follows: soluble on expression in E. coli; label from the status in PepcDB or PDB records.
Regarding “MLAYQGTQIKEKRDEDAGFDLCVPYDIMIPVSDTKIIPTDVKIQVPPNSFGWVTGKSSMAKQGLLINGGIIDEGYTGEIQVICTNIGKSNIKLIEGQKFAQLIILQHHSNSRQPWDENKISQRGDKGFGSTGVF”, the “soluble on expression in E. coli” value is given as “soluble”.

On to “MLDFKPIELKDRELFHEYLKDYDFLTYEYSFLTLYIWRKMYNTEFAIVDDTIVIKKRTANNGTYFMQPIGADKSKIADITLKLNTLRKNNPDFKYLYGDVETPFLEQLHENFGNLVTSHEDKNNFDYIFNSKDLIKLSGKKYHRKKNQYNQFIKKYDYRIEEIQSPEVIKNCIDLSLKWYDYKSLQSEQLKNEQKAIFDIFSNIKIFNNIKGIAVYVNNEIAGFAIGEKLNSKMATVHFEKGNYNFSGIYPFLNKSLVEIFFRDVEFINLQEDLGLEGLRRAKSAYQPIKLEKKYLVNI”, for which the “soluble on expression in E. coli” value is on record as “not soluble”.

With “MLDHVSITVSDIAVAEPFYDAIMAALGVVKVGARGDWLGYGERARPEHPDRVYLSIRKGDRPEPAYGRHWCFKATSRAVVDAFWQAGLAHGGVDQGAPGLRDYHPGYYAAFIADPDGNRLEAVCHTLG”, the “soluble on expression in E. coli” value is given as “not soluble”.

In the case of “MLDNVLRIATRQSPLALWQAHYVKDKLMASHPGLVVELVPMVTRGDVILDTPLAKVGGKGLFVKELEVALLENRADIAVHSMKDVPVEFPQGLGLVTICEREDPRDAFVSNNYDSLDALPAGSIVGTSSLRRQCQLAERRPDLIIRSLRGNVGTRLSKLDNGEYDAIILAVAGLKRLGLESRIRAALPPEISLPAVGQGAVGIECRLDDSRTRELLAALNHHETALRVTAERAMNTRLEGGCQVPIGSYAELIDGEIWLRALVGAPDGSQIIRGERRGAPQDAEQMGISLAEELLNNGAREILAEVYNGDAPA”, the “soluble on expression in E. coli” value is on record as “soluble”.

“MLERILSRENLIQALERVEKNKGSYGVDEMDVKSLRLHLHENWTSIRNEIIEGSYFPKPVRRVEIPKPNGGVRKLGIPTVMDRFLQQAIAQILTQLYDPTFSERSFGFRPHRRGHNAVRQAKQWMKEGYRWVVDIDLEKFFDKVNHDRLMRKLSSRIQDPRVLQLIRRYLQTGVMERGLVSPNTEGTPQGGPLSPLLSNIVLDELDNELEKRGLKFVRYADDCNIYVRSKRAGLRIMESVTSFIENRLKLKVNREKSAVDRPWNRKFLGFSFTRGKDPKMRVSKESVKRLKQRIRELTSRRHSMKMSDRLRRLNRYLTGWLGYYQLVDTPSILAQIDAWIRRRLRMIRWKEWKTTSARQKNLVRLGIKKAKAWQWANSRKGYWRVAHSPIMDYALNSEYWKGQGLMSLAERYQTRRWTLEHHHHHH”: the “soluble on expression in E. coli” value was “not soluble”.

On to “MLETNVDQKSFKFKIVLLGEGCVGKSSLVLRFVENKFSCKHLSTIQASFQNKTVNVEDCQADLHIWDTAGQEKYHALGPIYYRGSNGVLLVFDITDRKSFEKVKNWVLEIKTCLGNTAEILIVGNKIDLEEERQVTRQDAEAYAESEGALYMETSAQDNVGISDAFESLTAKMIEHSRTRSTEPPSTNRSIRLIDNDEAERSKKCCR”, for which the “soluble on expression in E. coli” value is on record as “not soluble”.

For the sequence “MLETRMQTTPLKIGISACLLGAKVRFDGGHKISHFVTNELDRYAEFVSVCPEMGMGLPVPRPTLRLISENERIALVETKDSSRDHTAALESYSQQKVAELQHAELCGYIVCAKSPSCGMERVKVYKHNGTEKDGVGVYTRILMEKMPWLPIEEDGRLNDPVLRENYITRVFCLHDFYTSMGDAPSAKKIVEFHSRYKLTLMAHNPQAYRALGRLVANVKQYPLDSFIQEYRLGLMQALAHRASRKNNTNVLMHLQGYFKRSLNKLQKAELAQVIESYRVGELPLLAPITLLKHYLALFPDAYLAQQRYLNPYPQELKLRYGL”, the “soluble on expression in E. coli” value was “not soluble”.

For “MLFLDSQFVYGAGAQLFNHFCYFFGTQQKFPPFLSIDENQYIIFIATEQFIREIKLLIALLLNENTAKYFQKALLCLKERKLVKIAKVGNVIEFKNGLTGVVEKVNENSVIVDVTIMDNYRDLELDSLTVVNHKNYKIIRDSYLEHHHHHH”, the “soluble on expression in E. coli” value was “soluble”.
